Here are results for one molecule from paper PMC7695701, “Mechanism and inhibition of Streptococcus pneumoniae IgA1 protease” (Nature Communications, 2020).

This assay deals with T1, S. pneumoniae IgA1 protease catalytic region (IgA1P residues 665–1963), wild type (Streptococcus pneumoniae, UniProt Q59947).
T1 construct: Streptococcus pneumoniae IgA1 protease (M26 metalloprotease), catalytic region, residues 665-1963 of UniProt Q59947 / NCBI WP_000417171 (D39 and R6 strains); Thrombin cleavage site between MBP and IgA1P; also called IgA1P 665–1963; not shown: MBP, N-terminal, cleaved
The assay is described as follows: cryo-EM structure; wild type IgA1P (residues 665-1963) with the mAb #2 Fab fragment; same procedure as for the IgA1 complex but in the absence of EDTA; 20 mM HEPES, pH 7.4, 150 mM NaCl. The following applies: both partners purified.

T1 sequence (Q59947 665-1963): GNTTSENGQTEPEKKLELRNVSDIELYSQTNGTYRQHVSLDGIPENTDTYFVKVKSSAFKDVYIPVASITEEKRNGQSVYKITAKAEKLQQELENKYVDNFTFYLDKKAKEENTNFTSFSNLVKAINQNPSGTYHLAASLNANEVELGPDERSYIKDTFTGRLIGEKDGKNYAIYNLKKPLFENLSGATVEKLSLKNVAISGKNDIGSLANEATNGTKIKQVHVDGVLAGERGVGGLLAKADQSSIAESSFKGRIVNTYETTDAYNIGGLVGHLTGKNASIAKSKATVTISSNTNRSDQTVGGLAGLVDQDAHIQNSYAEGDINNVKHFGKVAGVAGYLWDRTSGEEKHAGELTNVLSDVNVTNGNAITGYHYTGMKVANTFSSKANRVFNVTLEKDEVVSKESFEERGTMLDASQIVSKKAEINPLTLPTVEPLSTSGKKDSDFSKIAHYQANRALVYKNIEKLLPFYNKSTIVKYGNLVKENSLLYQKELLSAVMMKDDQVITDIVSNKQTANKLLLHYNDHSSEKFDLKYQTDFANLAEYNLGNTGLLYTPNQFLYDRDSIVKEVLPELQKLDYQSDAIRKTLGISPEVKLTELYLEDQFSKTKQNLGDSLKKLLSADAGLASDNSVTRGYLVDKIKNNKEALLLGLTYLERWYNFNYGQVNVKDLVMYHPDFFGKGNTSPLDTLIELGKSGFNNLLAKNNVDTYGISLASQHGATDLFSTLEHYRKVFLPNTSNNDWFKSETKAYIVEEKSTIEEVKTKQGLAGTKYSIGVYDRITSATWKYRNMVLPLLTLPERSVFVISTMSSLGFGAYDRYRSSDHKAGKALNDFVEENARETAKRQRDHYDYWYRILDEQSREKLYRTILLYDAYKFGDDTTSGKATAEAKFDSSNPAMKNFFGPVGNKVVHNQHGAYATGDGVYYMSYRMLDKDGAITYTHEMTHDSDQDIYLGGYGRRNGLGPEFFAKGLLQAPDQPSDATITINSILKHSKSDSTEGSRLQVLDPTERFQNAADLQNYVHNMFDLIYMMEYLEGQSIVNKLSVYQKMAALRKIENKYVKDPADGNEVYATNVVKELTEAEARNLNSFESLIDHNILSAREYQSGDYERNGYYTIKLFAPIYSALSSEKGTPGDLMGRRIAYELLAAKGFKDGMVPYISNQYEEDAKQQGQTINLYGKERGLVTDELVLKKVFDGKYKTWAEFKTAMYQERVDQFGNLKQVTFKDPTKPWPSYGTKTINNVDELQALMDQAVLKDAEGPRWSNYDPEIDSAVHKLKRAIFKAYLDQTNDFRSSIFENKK

B1: mAb #2 Fab fragment (neutralizing murine monoclonal antibody against IgA1P) (Fab, V domains shown)
VH: EVQLQQSGPELEKPGASMKISCKASGYSFTGYNMNWVKQSNGKSLEWIGSIDPYTGGSNYNQKFMGKATLTVDKSSSTAYMQLKSLTSEDSAVYYCATVVGRVYAMDYWGQGTSVTVSS
VL: EEVLTQSPAIMSASPGEKVTMTCSASSSVSYIHWYQQKSNTSPKLWIYATSKLASGVPGRFSGSGSGNSYSLTISSMEAEDVATYYCFQGSGYPFTFGSGTKLEIK
notes: PDB 3RHW named as the most similar heavy chain; PDB 4HXA named as the most similar light chain; Raised against purified full-length protease; also called neutralizing mAb Fab fragment; source: hybridoma (Balb C mouse spleen cells fused with SP2/0 myeloma cells), IgG purified on Protein G columns; Fab excised with immobilized Ficin
Turning to B1, the binding result was “binds”.
